Legend:
[1] = target: CD45 (human (endogenous in Jurkat)) (UniProt P08575); test: dSTORM localization statistics (number of localizations per cluster); live Jurkat T cells of large passage number labelled on ice with HI30-AF647, then fixed with 2% FA and 0.25% GA; TIRF on the basal membrane; DBSCAN clusters compared with theoretical monomer and dimer distributions
[2] = target: the molecule itself; test: dSTORM localization statistics (number of localizations per cluster); Jurkat T cells labelled with FN50-AF647, live on ice or after PFA or FA fixation, independent of the passage number; DBSCAN clusters compared with theoretical monomer and dimer distributions

stoichiometry N [1]	Molecule	stoichiometry N [2]
2	CD45 (from UniProt P08575 26-1306) (receptor)	–
–	CD69 (receptor, human (endogenous in Jurkat), UniProt Q07108 1-199, looked up, CD69, endogenous in the plasma membrane of human Jurkat T cells; the introduction describes it as a phosphorylated disulfide-linked homodimer; Written as the protomer; the self-association row gives the dimer; Detected with the anti-CD69 antibody FN50-AF647; source: endogenous, on Jurkat T cells (Jurkat E6-1)) MSSENCFVAENSSLHPESGQENDATSPHFSTRHEGSFQVPVLCAVMNVVFITILIIALIALSVGQYNCPGQYTFSMPSDSHVSSCSEDWVGYQRKCYFISTVKRSWTSAQNACSEHGATLAVIDSEKDMNFLKRYAGREEHWVGLKKEPGHPWKWSNGKEFNNWFNVTGSDKCVFLKNTEVSSMECEKNLYWICNKPYK	2

— article PMC12871438, “Single-molecule localization microscopy reveals the molecular organization of endogenous membrane receptors” (Science Advances, 2026)
